This is an account of results in paper PMC10031476, “Interaction of the bacterial division regulator MinE with lipid bicelles studied by NMR spectroscopy” (The Journal of Biological Chemistry, 2023).

This series concerns the molecule itself. Nature of the series: NMR (3D 15N-separated NOE spectrum, NOE-TROSY); 2H/15N-labeled ngMinE bound to q = 0.5 DMPC:DHPC bicelles; 150 ms mixing time; 35 °C; 25 mM potassium phosphate pH 6.5, 1 mM EDTA, 1 mM benzamidine hydrochloride.

B1: Full-length Neisseria gonorrhoeae MinE bearing the double mutation E46A/R10Q (natural protein)
chain: MSLIELLFGQKQKTATVARDRLQIIIAQERAQEGQTPDYLPTLRKALMEVLSKYVNVSLDNIRISQEKQDGMDVLELNITLPEQKKV
modifications: uniform 2H/15N or 2H/15N/13C isotope labeling
notes: Dimer with C2 symmetry (about 19 kDa); also called ngMinE; full-length ngMinE; not shown: His6, C-terminal, kept
B1: the binding result is given as “binds”.
